Data reported in paper PMC9606073 (Immunity, 2022).

How the values were obtained:
Conditions in all cases: both partners purified
SARS-CoV-2 WA1 RBD [1] = target: SARS-CoV-2 WA1 RBD (SARS-CoV-2 USA-WA1/2020 (MT246667.1)); test: ELISA
Yun11-CoV RBD = target: T1, Yun11-CoV RBD (Bat coronavirus Cp/Yunnan2011 (Yun11), UniProt R9QTH3); test: ELISA
T1 construct: source: Expi293F cells, transient transfection, purified (Ni-NTA, SEC)

Rf1-CoV RBD = target: T2, Rf1-CoV RBD (Bat SARS CoV Rf1/2004, UniProt Q0QDZ0); test: ELISA
T2 construct: source: Expi293F cells, transient transfection, purified (Ni-NTA, SEC)

[2] = target: SARS-CoV-2 RBD (residues 323-528) (SARS-CoV-2 WA1); test: crystal structure
SARS-CoV-2 WA1 RBD [3] = target: SARS-CoV-2 WA1 RBD (SARS-CoV-2 USA-WA1/2020 (MT246667.1)); test: SPR

B1: M8a-28 IgG (antibody, V domains shown)
VH: QVQLQQPGAELVKPGASVKMSCKASGYNFNHYWISWVKQRPGQGLEWIGDIYPLSHFTTYNEKFTNRATLTVDTSSTTAYMQLNSLTSDDSAVFYCARWDYFDSRTFDYWGQGTTLTVSS
VL: DILLTQFPAILSVSPGERVSFSCRASQTIGTNIHWYQQRINGSPRLLIKYASESISGIPSRFSGSGSGTDFSLSINNVESEDIADYYCQQINSWPLTFGAGTKLDLK
notes: copies: 2 + 2
B1: binds (SARS-CoV-2 WA1 RBD [1]).

B2: M8a-34 IgG (antibody, V domains shown)
VH: QVQLQQPGAELVKPGASVKMSCKASGYTFITYWITWVKQRPGQGLEWIGDIYPGGGRTNYNEKFKSKATLTVDTSSSTAYMQLRSLTSEDSAVYYCARYDGNYVGYYYAMDYWGQGTSVTVSS
VL: DIVLTQSPVSLAVSLGQRATISCRASESVDFYGNSFIYWYQQKPGQAPKLLIYRASNLESGIPARFSGSGSRTDFTLTIHPVEADDVATYYCQQSIEDPRTFGGGTKLEIK
notes: copies: 2 + 2
B2: binds (Yun11-CoV RBD); binds (Rf1-CoV RBD); binds (SARS-CoV-2 WA1 RBD [1]).

B3: M8a-34 Fab (Fab, V domains shown)
VH: QVQLQQPGAELVKPGASVKMSCKASGYTFITYWITWVKQRPGQGLEWIGDIYPGGGRTNYNEKFKSKATLTVDTSSSTAYMQLRSLTSEDSAVYYCARYDGNYVGYYYAMDYWGQGTSVTVSS
VL: DIVLTQSPVSLAVSLGQRATISCRASESVDFYGNSFIYWYQQKPGQAPKLLIYRASNLESGIPARFSGSGSRTDFTLTIHPVEADDVATYYCQQSIEDPRTFGGGTKLEIK
B3: binds [2].

B4: M8a-6 IgG (antibody, V domains shown)
VH: QVQLQQPGTELVMPGASVKLSCKTSGYTFTHYWMHWVKQRPGEGLEWIGEIAPSDNYVKYNQKFKGKSTLSVDRSSSTAYMQLSSLTSEDSAVYFCARPDNSGYPVYFDYWGQGTSLTVSS
VL: DIVMTQSQKFMSTSLGDRVSISCKASQDVGTTVAWYQQKPGQSPKLLIYWASTRHTGVPDRFTGTGSGTDYTLTISSVAAEDLALYYCQQHYNTPYTFGGGTKLEIE
notes: copies: 2 + 2
B4 was tested, and the Kd (SARS-CoV-2 WA1 RBD [3]) was 104 nM.

B5: M8a-6 Fab (Fab, V domains shown)
VH: QVQLQQPGTELVMPGASVKLSCKTSGYTFTHYWMHWVKQRPGEGLEWIGEIAPSDNYVKYNQKFKGKSTLSVDRSSSTAYMQLSSLTSEDSAVYFCARPDNSGYPVYFDYWGQGTSLTVSS
VL: DIVMTQSQKFMSTSLGDRVSISCKASQDVGTTVAWYQQKPGQSPKLLIYWASTRHTGVPDRFTGTGSGTDYTLTISSVAAEDLALYYCQQHYNTPYTFGGGTKLEIE
notes: source: Expi293 cells, transient transfection, purified (Ni-NTA, SEC)
B5: binds [2].

B6: C118 IgG (antibody, V domains shown)
VH: QVQLVESGGGVVQPGRSLRLSCAASGFTFSNYAMHWVRQAPGKGLEWVAVISYDGSNKYYADSVKGRFTISRDNSKNTLYLQMNSLRAEDTAIYYCASGYTGYDYFVRGDYYGLDVWGQGTTVTVSS
VL: QPVLTQSPSASASLGASVKLTCTLSSGHSSYAIAWHQQQPEKGPRYLMKLNTDGSHSKGDGIPDRFSGSSSGAERYLTISSLQSEDEADYYCQTWGTGILVFGGGTKLTVL
notes: copies: 2 + 2
For B6, the Kd (SARS-CoV-2 WA1 RBD [3]) was 0.19 nM, the koff (SARS-CoV-2 WA1 RBD [3]) was 3.5e-05 s⁻¹ and the kon (SARS-CoV-2 WA1 RBD [3]) was 180000 M⁻¹ s⁻¹.

B7: HSW-2 Fab (Fab, V domains shown)
VH: QVQLQQSGPELVKPGASVKISCKASGYVFSTSWMSWVKQRPGEGPEWIGRIYPRDGHSSSTGKFKDKATLTADKSSNTAYIHLSSLTSEDSAVYFCARDYGYYYFDYWGQGTTLTVSS
VL: DIQMTQSPASLSASVGEAVTITCRLSENVYSFLAWYQQKQGKSPQLLVYRAKTLAEGVPSRFSGSGSGTQFSLKINSLQPEDFGTYYCQHHYGTPPTFGGGTKLEIK
B7: binds [2].

B8: HSW-2 IgG (antibody, V domains shown)
VH: QVQLQQSGPELVKPGASVKISCKASGYVFSTSWMSWVKQRPGEGPEWIGRIYPRDGHSSSTGKFKDKATLTADKSSNTAYIHLSSLTSEDSAVYFCARDYGYYYFDYWGQGTTLTVSS
VL: DIQMTQSPASLSASVGEAVTITCRLSENVYSFLAWYQQKQGKSPQLLVYRAKTLAEGVPSRFSGSGSGTQFSLKINSLQPEDFGTYYCQHHYGTPPTFGGGTKLEIK
notes: copies: 2 + 2
B8: binds (SARS-CoV-2 WA1 RBD [1]).

B9: HSW-1 IgG (antibody, V domains shown)
VH: QVQLQQPGAELVKPGTSMKLSCKASGYTFTSYWMHWVKQRPGQGLEWIGMIHPNSGSTKYNENFKSKATLTVDKSSSTAYMQFSSLTSEDSAVYYCVRSGSYYGTTYDYFDYWGQGTTLTVSS
VL: DIVLTQSPASLAVSLGQRATISCRASESVNIYGNSFMHWYQQKPGQPPKLLIFRASNLESGIPVRFSGSGSRTDFTLTINPVEADDVATYYCHQSNEDPFTFGSGTKLEIK
notes: copies: 2 + 2
B9: binds (SARS-CoV-2 WA1 RBD [1]).

B10: M8a-3 IgG (antibody, V domains shown)
VH: QVQLQQPGAELVLPGASVKLSCKASGYTFTNYWMHWVKQRPGHGLEWIGEIDPFDTYIKINQKFKGKSTLTVDTSSSTAYMQLSSLTSEDSAVYYCARPDSSGYPVYFDYWGQGTTLTVSS
VL: DIVMTQSHKFMSTSVGDRVSITCKASQDVGTYIAWYQQKPGQSPKLLIYWASTRHTGVPDRFTGSGSGTNYTLTISSVQAEDLALYHCQQHYSTPYTFGGGTKLEIK
notes: copies: 2 + 2
In the case of B10, the Kd (SARS-CoV-2 WA1 RBD [3]) is reported as 0.86 nM, the koff (SARS-CoV-2 WA1 RBD [3]) is reported as 0.00016 s⁻¹ and the kon (SARS-CoV-2 WA1 RBD [3]) is reported as 190000 M⁻¹ s⁻¹.

B11: M8a-3 IgG (antibody, V domains shown)
VH: QVQLQQPGAELVLPGASVKLSCKASGYTFTNYWMHWVKQRPGHGLEWIGEIDPFDTYIKINQKFKGKSTLTVDTSSSTAYMQLSSLTSEDSAVYYCARPDSSGYPVYFDYWGQGTTLTVSS
VL: DIVMTQSHKFMSTSVGDRVSITCKASQDVGTYIAWYQQKPGQSPKLLIYWASTRHTGVPDRFTGSGSGTNYTLTISSVQAEDLALYHCQQHYSTPYTFGGGTKLEIK
notes: copies: 2 + 2
B11: binds (Yun11-CoV RBD).

B12: M8a-31 IgG (antibody, V domains shown)
VH: EVQLKQSVAELVRPGASVKVSCTASGFNIKNIYMHWVKQRPEQGLDWIGRIDPANGNSRYAPKFQDKATITADTSSNTAYLQLSSLTSEDTAIYYCADEGWGFANWGQGTLVTVSA
VL: DIVMTQSPSSLTVTAGEKVTMSCKSSQSLLNSGNQKNYLTWYQQKVGQPPKLLIYWASTRDPGVPDRFTGSGFGTDFTLTISSVQAEDLAVYYCQNDYSYPLTFGAGTKVELK
notes: copies: 2 + 2
B12: binds (Yun11-CoV RBD); binds (Rf1-CoV RBD); binds (SARS-CoV-2 WA1 RBD [1]).
